Reference: patent US20160303253A1

Target: Human trophoblast cell-surface antigen (TROP-2) (human) (UniProt P09758)
Experiment: cell-based or functional assay

Sequence of Human trophoblast cell-surface antigen (TROP-2) (human) (P09758 27-323): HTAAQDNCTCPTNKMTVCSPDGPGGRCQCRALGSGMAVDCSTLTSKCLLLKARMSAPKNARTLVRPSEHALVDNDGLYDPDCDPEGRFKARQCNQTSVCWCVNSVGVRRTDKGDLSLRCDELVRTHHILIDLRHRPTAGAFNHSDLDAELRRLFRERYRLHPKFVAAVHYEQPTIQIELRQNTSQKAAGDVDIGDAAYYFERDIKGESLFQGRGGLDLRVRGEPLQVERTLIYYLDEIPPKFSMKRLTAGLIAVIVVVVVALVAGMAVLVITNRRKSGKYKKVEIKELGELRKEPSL

Substance: hRS7-CL2A-SN-38 (antibody)
- ADC/free SN-38 ratio of IC50, in vitro cytotoxicity, BxPC-3: 2.8
- ADC/free SN-38 ratio of IC50, in vitro cytotoxicity, COLO 205: 1.91
- ADC/free SN-38 ratio of IC50, in vitro cytotoxicity, Calu-3: 1.39
- ADC/free SN-38 ratio of IC50, in vitro cytotoxicity, Capan-1: 2
- ADC/free SN-38 ratio of IC50, in vitro cytotoxicity, PC-3: 2.28
- ADC/free SN-38 ratio of IC50, in vitro cytotoxicity, SK-MES-1: 2.69
